Common to all, as to assay: ELISA, coated protein, antibody at 4 µg/mL
Background: ELISA stands for enzyme-linked immunosorbent assay.

One test has as its target T1, human GDF1 protein (human, UniProt P27539 254-372, limits assumed).
T1 construct: Bought
T1 sequence (looked up): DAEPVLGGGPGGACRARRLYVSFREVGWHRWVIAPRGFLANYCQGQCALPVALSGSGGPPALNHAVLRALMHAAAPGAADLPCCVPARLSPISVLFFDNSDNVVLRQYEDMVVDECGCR

The target of a further test is T2, human GDF3 protein (human, UniProt Q9NR23 251-364, limits assumed).
T2 construct: Bought
T2 sequence (looked up): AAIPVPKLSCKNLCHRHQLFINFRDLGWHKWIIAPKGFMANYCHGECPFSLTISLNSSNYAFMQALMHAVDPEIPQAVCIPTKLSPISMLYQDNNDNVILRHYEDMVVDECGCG

The target in test [1] is T3, human GDNF protein (human, UniProt P39905 78-211).
T3 construct: Bought
T3 sequence (looked up): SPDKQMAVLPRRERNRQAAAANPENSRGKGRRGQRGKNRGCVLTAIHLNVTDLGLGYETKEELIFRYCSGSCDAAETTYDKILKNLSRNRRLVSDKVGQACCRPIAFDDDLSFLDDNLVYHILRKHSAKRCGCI

Another test deals with T4, Human GDF15 protein (human, UniProt Q99988 197-308).
T4 construct: Natural GDF15 is said to be a disulfide-linked homodimer; also called Human-GDF15-his
T4 sequence: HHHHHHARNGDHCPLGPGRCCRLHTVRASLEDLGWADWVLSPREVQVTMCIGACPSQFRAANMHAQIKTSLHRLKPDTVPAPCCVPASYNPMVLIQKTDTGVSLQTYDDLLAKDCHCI

Test [2] deals with T3, human GDNF protein. The source holds these as a separate data set.

B1: Hu19C4C7 (antibody, human IgG1, kappa)
heavy: QVQLVQSGAEVKKPGSSVKVSCKASGYSFTGYIMNWVRQAPGQSLEWMGDIDPYYGGPNYNQKFQGRVTITVDKSTSTAYMELSSLRSEDTAVYYCSRRDYNYGSFAYWGQGTLVTVSSASTKGPSVFPLAPSSKSTSGGTAALGCLVKDYFPEPVTVSWNSGALTSGVHTFPAVLQSSGLYSLSSVVTVPSSSLGTQTYICNVNHKPSNTKVDKKVEPKSCDKTHTCPPCPAPEAAGAPSVFLFPPKPKDTLMISRTPEVTCVVVDVSHEDPEVKFNWYVDGVEVHNAKTKPREEQYNSTYRVVSVLTVLHQDWLNGKEYKCKVSNKALPAPIEKTISKAKGQPREPQVYTLPPSREEMTKNQVSLTCLVKGFYPSDIAVEWESNGQPENNYKTTPPVLDSDGSFFLYSKLTVDKSRWQQGNVFSCSVMHEALHNHYTQKSLSLSPGK
light: QIVLTQSPATLSLSPGERATLSCRASSSVNYMHWYQQKPGQAPRPLIYATSNLATGIPARFSGSGSGTDYTLTISSLEPEDFAVYYCQQWSDNPPTFGQGTKLEIKRTVAAPSVFIFPPSDEQLKSGTASVVCLLNNFYPREAKVQWKVDNALQSGNSQESVTEQDSKDSTYSLSSTLTLSKADYEKHKVYACEVTHQGLSSPVTKSFNRGEC
notes: Humanized form of murine 19C4C7; human IgG1 constant region with L234A, L235A, G237A and kappa light chain constant region; also called hu19C4C7-IgG1-mut(L234A,L235A,G237A)
For B1, the OD value is 0.201 OD 450 nm-620 nm with human GDF1 protein, 0.0862 OD 450 nm-620 nm in the test with human GDF3 protein, 0.241 OD 450 nm-620 nm with human GDNF protein [1] and 2.47 OD 450 nm-620 nm with Human GDF15 protein.

B2: HuVHH43-3 (Fc fusion)
heavy: QLQLVESGGGLVQPGGSLRLSCAASGHTYGMGWFRQAPGKAREIVSAISRSGSSTYYADSVKGRFTISRDNSKNTLYLQMNSLRAEDTAVYICGASTSALVPTTTGMYAYWGQGTRVTVSSEPKSSDKTHTCPPCPAPEAAGAPSVFLFPPKPKDTLMISRTPEVTCVVVDVSHEDPEVKFNWYVDGVEVHNAKTKPREEQYNSTYRVVSVLTVLHQDWLNGKEYKCKVSNKALPAPIEKTISKAKGQPREPQVYTLPPSREEMTKNQVSLTCLVKGFYPSDIAVEWESNGQPENNYKTTPPVLDSDGSFFLYSKLTVDKSRWQQGNVFSCSVMHEALHNHYTQKSLSLSPGK
notes: also called huVHH43-IgG1-mut(L234A,L235A,G237A); VHH humanized anti-GDF15 antibody
In the case of B2, in the test with human GDNF protein [2], the OD value (OD 450 nm-620 nm) was found to be 0.273.

The record behind these values is patent publication EP4818204A1 (Nanjing Leads Biolabs Co., Ltd., dated 2026).
